Source: the supplement of paper PMC9732359
± gives the uncertainty stated by the source.

Test: protein stability index of a GFP-peptide fusion (yeast GPS) (PSI 1-4); higher = more stable; sorted into four equal gates, so the index is relative within each strain
Outline: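 Tiled yeast protein peptides of 17 residues were each joined downstream of GFP, on plasmids that also express Cherry. The pooled library was maintained in yeast, and mid-log cultures in leucine-free medium were sorted into four equal gates on the GFP/Cherry ratio. Plasmids from every gate were amplified by PCR and sequenced on Illumina, with barcodes linking reads to strains. The protein stability index of a peptide is its gate-number-weighted read frequency summed over the gates.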

| Sequence | protein stability index (doa10∆) | protein stability index (pdr5∆) | protein stability index (ubr1∆) | protein stability index (san1∆) |
| --- | --- | --- | --- | --- |
| TTDDEEEPIKKLCYVLG [RET1] | 3.42 ± 0.27 | 3.29 ± 0.18 | 3.46 ± 0.17 |  |
| FGWLLSDNSVSVRLQVT [IRR1] | 1.26 ± 0.078 | 1.32 ± 0.095 | 1.13 ± 0.13 | 1.19 ± 0.23 |
| FGRKKRKGGPATAEKLP [RPT2] | 3.56 ± 0.089 | 3.28 ± 0.12 | 3.34 ± 0.11 | 3.24 ± 0.075 |
| RKSKLNLDNLQKVSQLE [POP4] | 2.89 ± 0.2 |  |  |  |
| KVEKGVNIEPFNIDDEI [LIN1] | 3.52 ± 0.14 | 3 ± 0.21 | 3.49 ± 0.076 | 3.45 ± 0.14 |
| EDGMIIDVNLNFARQLL [RRP40] | 3.15 ± 0.086 | 3.23 ± 0.074 | 3.11 ± 0.063 | 3.26 ± 0.079 |
| DEEELGQRTAYHSKRDA [RPB2] | 3.4 ± 0.1 | 2.9 ± 0.14 | 3.04 ± 0.098 | 3.31 ± 0.09 |
| QEQITLYDHWDKYHEQW [SSN8] | 3.32 ± 0.19 | 3.12 ± 0.12 | 2.76 ± 0.046 | 2.84 ± 0.071 |
| TVVISQKKVPDKLLDPT [SCL1] | 2.85 ± 0.1 | 2.31 ± 0.085 | 2.86 ± 0.068 | 3.23 ± 0.064 |
| RNDKTLELMDSKKTGQF [POP1] | 3.34 ± 0.069 | 3.44 ± 0.06 | 3.37 ± 0.05 | 3.18 ± 0.064 |
| NSEKYYDEDPYGFEDES [RPB2] | 3.47 ± 0.18 | 3.32 ± 0.079 | 3.25 ± 0.13 | 3.27 ± 0.066 |
| IINKLIHIQSKENYPWE [POP3] | 2.65 ± 0.067 | 2.44 ± 0.047 | 2.41 ± 0.045 | 1.81 ± 0.068 |
| SDIKQGYTQHGGLRPFG [PRE9] | 3.5 ± 0.13 | 2.53 ± 0.23 |  | 3.58 ± 0.15 |
| YNSVAEAKKFEPTYRLV [RPS24A] | 2.87 ± 0.14 | 2.95 ± 0.13 | 2.74 ± 0.072 | 2.71 ± 0.18 |
| WAGKRLWDQDIAIAGTG [COR1] | 3.25 ± 0.1 | 3.11 ± 0.12 | 2.66 ± 0.072 | 2.56 ± 0.1 |
| LIPDGRHLVNRGREEAA [PRE10] |  | 1.41 ± 0.28 |  |  |
| QSDLEIITQYVFESLEI [ARP9] | 2.35 ± 0.067 | 3.12 ± 0.07 | 3.01 ± 0.08 | 2.52 ± 0.082 |
| VKADVEKSLLPKIETNV [ISW2] | 3.03 ± 0.086 | 3.18 ± 0.074 | 2.92 ± 0.088 | 3.11 ± 0.062 |
| ERYFDCCTKFFTMMTSE [PCI8] | 2.38 ± 0.059 | 2.44 ± 0.071 | 2.29 ± 0.045 | 2.35 ± 0.07 |
| TGVMIGIDLAYNMYDAY [PRP8] | 2.5 ± 0.064 | 2.69 ± 0.053 | 2.84 ± 0.051 | 2.82 ± 0.066 |
| TKTPGPGGQAALRALAR [RPS14A] | 2.64 ± 0.042 | 2.27 ± 0.031 | 2.3 ± 0.029 | 2.39 ± 0.042 |
| DTDSKPSSQSQNDTPMF [YLR018C/POM34] | 2.89 ± 0.044 | 3.17 ± 0.048 | 2.95 ± 0.034 | 3 ± 0.039 |
| NVVGKLISIISSVIQNY [YML103C/NUP188] | 1.79 ± 0.073 | 1.44 ± 0.078 | 1.51 ± 0.089 | 1.36 ± 0.13 |
| GEANKHHWEDLQKRVIE [RPN5] | 2.98 ± 0.26 | 3.4 ± 0.26 | 3.81 ± 0.27 | 2.93 ± 0.18 |
| IPDFRSSEGFYSKIKHL [SIR2] | 2.33 ± 0.13 | 2.21 ± 0.075 | 2.45 ± 0.079 | 2.17 ± 0.15 |

| Sequence | protein stability index (doa10∆) | protein stability index (pdr5∆) | protein stability index (ubr1∆) | protein stability index (san1∆) |
| --- | --- | --- | --- | --- |
| QEIFDANVQRLKEYQSK [RPL13A] | 3.06 ± 0.097 | 3.4 ± 0.15 | 3.27 ± 0.093 | 2.93 ± 0.15 |
| VKQYNKKWPQFYAAVQK [SIN4] | 1.49 ± 0.15 | 1.93 ± 0.1 | 1.68 ± 0.047 | 1.55 ± 0.1 |
| VRDELRKVEKEKNEKER [UBP6] |  |  | 3.78 ± 0.2 | 3.5 ± 0.13 |
| TLGKLSTSVGWKYEDVV [RPL16B] | 2.82 ± 0.062 | 2.42 ± 0.069 | 2.81 ± 0.059 | 2.71 ± 0.11 |
| LKTRYVGRQDPKKHLSE [RPN11] | 3.08 ± 0.087 | 3.11 ± 0.18 | 3.26 ± 0.12 | 3.3 ± 0.078 |
| WVAPQESSHEQEEFVQF [ECM29] | 3.26 ± 0.15 | 3.42 ± 0.13 |  |  |
| QMTWRQWLNNALKRSYG [POP8] | 2.9 ± 0.085 | 3.08 ± 0.14 | 3.2 ± 0.079 | 3.56 ± 0.079 |
| LGICTHLGCVPIGEAGD [RIP1] | 2.21 ± 0.08 | 2.33 ± 0.076 | 1.9 ± 0.083 | 1.79 ± 0.1 |
| SEVRKAVSIETALEHKV [FAS2] | 1.67 ± 0.12 | 1.4 ± 0.095 | 1.39 ± 0.051 | 1.35 ± 0.12 |
| SKPESSVLQLIVSEDHI [MED1] | 2.14 ± 0.16 | 2.17 ± 0.079 | 2.7 ± 0.092 | 2.06 ± 0.14 |
| NHVMYTEVSRKSMKYVK [ECM29] | 2.37 ± 0.055 | 2.61 ± 0.06 | 2.23 ± 0.039 | 2.27 ± 0.078 |
| EKIKDIHNTKLPAYSGE [POP1] | 3.09 ± 0.059 | 3.04 ± 0.057 | 2.79 ± 0.08 | 2.96 ± 0.048 |
| QVPDSLDDQIFVCEKSI [RPN6] | 3.01 ± 0.2 | 3.19 ± 0.1 | 2.92 ± 0.13 | 2.95 ± 0.084 |
| PIDIFQIIRRVKEMEPK [SIR3] | 3.1 ± 0.13 | 3.22 ± 0.18 | 2.94 ± 0.29 |  |
| EFQIEDAIWSLVFQLAK [SRB8] | 3.63 ± 0.18 | 3.36 ± 0.23 |  |  |
| FAFWNLLVKFIKFFWNN [YLR018C/POM34] | 2.13 ± 0.23 | 2 ± 0.076 | 1.36 ± 0.24 | 1.7 ± 0.13 |
| ATVPSGRPETYIWRYLP [RPO31] | 2.27 ± 0.12 | 1.81 ± 0.092 | 1.49 ± 0.11 | 1.16 ± 0.16 |
| RRMGILKKILDQCKKQR [RPO31] | 1.63 ± 0.16 | 1.7 ± 0.29 | 1.9 ± 0.098 | 1.61 ± 0.23 |
| DQLDSEAASITRKSLNN [ECM29] | 2.89 ± 0.1 | 2.91 ± 0.1 | 2.95 ± 0.049 | 3.04 ± 0.064 |
| KCSTRGLSTDHTTQIVN [YML103C/NUP188] | 2.9 ± 0.079 | 2.9 ± 0.085 | 3.01 ± 0.054 | 2.79 ± 0.07 |
| VLNMLYWVPDWDGVIPT [RPO21] | 2.92 ± 0.067 | 2.63 ± 0.066 | 3.16 ± 0.038 | 2.92 ± 0.055 |
| KIKDVQQQIESNEEQRN [SMC3] | 3.22 ± 0.091 | 3.17 ± 0.082 | 2.85 ± 0.11 | 3.18 ± 0.076 |
| LEHVLLVPTASFFIASQ [FAS1] | 1.25 ± 0.033 | 1.46 ± 0.038 | 1.31 ± 0.027 | 1.45 ± 0.064 |
| QEKNFQTGIFVYQNNIT [RPB5] | 2.49 ± 0.064 | 1.52 ± 0.064 | 2.38 ± 0.082 | 2.88 ± 0.09 |
